Assay results taken from the DeepSol protein solubility set.

Assay: soluble on expression in E. coli; label from the status in PepcDB or PDB records

Sequence | soluble on expression in E. coli
MTFLLKSCSTFFEKFCCCCKKYESEWNTQLESISLFAARRGFTDGEPYLILFGLCPNANKTFIVSENKLSDSNICLGDFLVACSDSPKNLKNFKKVPYPLDVTVEGDYAIISYSSMEAIKDISGILIFQTTDFGPIRSLNQNLDLDEYNITVHATGVSASGHVIELRAKAQPASNYRNSSVYENPSFLDDLSDEPLEIKKTISNNSLDGFSMEQLIQQLPTLELGEAENSVRVPQNLSAPRLMKAFVYSVHQYPHTKFHFLWICDIMEKSILKLPQYDFELGYFFEGIFKQKSNGKWECEQYNNKIEPLINGTVVINEYNGNEKVELTTTVTNYKPKNNTRKWPEVEAKYLGVVYDRHNKLPKNCEGQKVEVQMMKIDKEQYGWVITDILNE | not soluble
AHHHHHHGSTKVYIENYGCARNRADGEIMAGLLLSSGYEIVEGEENADIVVVNSCAVKDPTEVKIARRIRELLDRGKKVIVTGCLPHVNPDAIDERVSAVLGVKSIDRIVQAVEYALRGEKLISVPDWRKRNLDKLDFPRLSPRGVHFILPIAEGCLNGCTYCATRSARGVLKSYSPEKIVEWVKWAIRQGYKEIWLSAEDTGCYGFDIGTNLAKLLDEITAIEGEFRIRVGMMNPNHVLKFLDELIEAYKDEKVYKFLHLPVQSGDNEILRRMGRTYTVEEFEEIVNAFRREFPDLNLHTDIIVGFPGESEEAFQRSLELIKRIKPDKVNVSRYSPRPGTIAAKWKQLPGWVVKERSRIMHRVRLQISYEINQRYVGRKVDILVHGEGKKGNVDAVTMNYKHIIIPRGEKGEFARAKVNGATSTYLLGEIVD | not soluble
MSLSVNSRILWVDLENSPHVPFFKPIIEELEKHGYRVVITARDCFQVCGLADLYGLPYTRIGRHYGKHKALKVVGAVIRALQMRNTLARPLPSLAIAHGSRSQLLAAKILHIPALQLADYEFSNKMPSFLSSDWIMVPETIPAGLHWRNTSRISTYPGIKEDVYVPTFKPQTGILSELGILEKEIVVTIRPPASEAHYHNPKSDDLFYATVNWLSGIDNLRMVVLPRNSSQAAHIGKTWPALIGEAKMVIPDRVLDGLNLIWHSDLVISGGGTMNREAAALGVPVYSIFKGEIGAVDKYLASTGRLTLLETADDITNKVLIQKWERPSSPDHNPRPALKVIVDKILELVEGHHHHHH | not soluble
MKNTSRDTVVMSWWDFGHLFAVAADRPVTFDGGSQNTPRAYWIGKALTTSNETLSRGILTMLSTSGDLAYETLDNYTDDSGKTAEILTATLGLPREEARAVMTGRYGLSDKEADSVLRYSHPAKPKPFVLVLSSDMLGKAPWWTYFGTWDFKKKTGSRYGYYPSLEHHHHHH | soluble
MERVVINVSGLRFETQMKTLAQFPETLLGDPEKRTQYFDPLRNEYFFDRNRPSFDAILYYYQSGGRLKRPVNVPFDIFTEEVKFYQLG | soluble
MKKRGLENHPQNRKKIFERFPRLTKLSEKNLFQICKTTLLNERKMKSIQNTIDELRKLSAGKSSEEVQRLKEMQKHSKMFGEIFGVYGATVGKPKPKEKEVKVPTKEMTFEEKRKLLETTFPNKVTPGQRAKARETLNFIANNPEIYAIASPQDPSSKAKTDPVSRPQLNIISSFSWPITSGSDWSPHGSEFNDLTAPRVGKLTPVPQWSDMKKSSLKLGTEDNFSKMSYDPAYSNTTQSQSVTTLYNETSTPYYDDSDLGTPLHTCVQ | not soluble
MSIYSKILVVADINHDEQPALARAMQLAQKSTSVSHITFFLSIYDFSYDMTSMLSLEERDAMRKGVIHQREQWMRSIAEPYLDKSVQFDIKVVWHNRPYEAIIGEIFAGEHDILIKATRKHDMLESVIFTPTDWHLMRKCPTPVLLVKNADWPENANIIASVHVGSELDTHIDLNDRMVEQLLNLSKRLGASPYLVNAYPVTPANITIELPEFDPTTYTDAVRGHHLTAMKALRQKHGLSEEQTLVQQGLPEDVIPEAAKQLNAAMVILGTTGRTGLSAVFIGNTAEHVIDKINCDVLALKPNGYVSPLDPQTAI | not soluble
MGSDKIHHHHHHMNYKPEIAIIESNTLTCLGLKSILEEIIPMATIRTFHSFSELMDDTPDMYAHYFISAQIYVEHNAFFLPRKRKTIVLASDSPQFQLSGVPVLNIYEPEEKLVKSLLKLHQHAHHNGYPVKDMPPIAMPEVHQEILSAREIEVLVLITKGLINKEIADKLNISLTTVITHRKNITEKLGIKSVSGLTIYAVMNGYIEADRI | not soluble
MPNNLELKQLIASAQVLGLQNDSSLPAFDRQILRMADEEKRALSPTEIQHICQTSKVDAQLIEQLQSQANHLVQQAREFLVKEQPHLVQSGGALFPSERAEACWRDCWQFFRVIVYAIACKRPLFTDAEGMGALRALYAHVGVPIEGLNIALKQLKVLSRQEISGAIEAPLLSESFGHLLEELNKTGVKS | not soluble
SASPSLERPEKGAGKSEFRNQKPKPENQDESELLTVPDGWKEPAFSKEDNPRGLLEESSFATLFPKYRGAYLKECWPLVQKALNEHHVNATLDLIEGSMTVCTTKKTFDPYIIIRARDLIKLLARSVSFEQAVRILQDDVACDIIKIGSLVRNKERFVKRRQRLIGPKGSTLKALELLTNCYIMVQGNTVSAIGPFSGLKEVRKVVLDTMKNIHPIYNIKSLMIKRELAKDSELRSQSWERFLPQFKHKNVNKRKEPKKKTVKKEYTPFPPPQPESQIDKELASGEYFLKANQKKRQKMEAIKAKQAEAISKRQEERNKAFIPPKEKPIVKPKEASTETKIDVASIKEKVKKAKNKKLGALTAEEIALKMEADEKKKKKKK | soluble
RRNINVVLHEDSKALDEVVIVGYGKQKKESVVVSMSSIKPKDIVVPSRSLNNSLAGQVAGLIAVQRSGEPGYDNAEFWIRGVSTFAGGTSPLVLVDGVPRNMSDIEPDEIETFSVLKDAAATAIYGAEGANGVVLVTTKRGRVEK | not soluble
MKSKRLSLVLMTAALGLTACATTQSPTGRSQTLLYSSSQMQQMGDASFAEMKKQQKISGNKKLTQYVNCVANRVTAVLPDQTQKWDVVLFDSEQVNAFALPGGHIGVYTGLLKVASTPDQLATVLGHEVAHVLAQHGNEQVSRSQMTGMGMQIADAALGAGGVSNRDLYMSALGLGAQVGVILPFGRAQESEADIMGLELMARAGFDPAQSVVLWQNMSKAGGGKGPELLSTHPSNNNRIAQLEQLQGQMQPLYQSAKANIKNQCAAPKLEHHHHHH | not soluble
GAMMPVPNPTMPVKGAGTTLWVYKGSGDPYANPLSDVDWSRLAKVKDLTPGELTAESYDDSYLDDEDADWTATGQGQKSAGDTSFTLAWMPGEQGQQALLAWFNEGDTRAYKIRFPNGTVDVFRGWVSSIGKAVTAKEVITRTVKVTNVGRPSMAE | soluble
MTALKVGSESWWQSKHGPEWQRLNDEMFEVTFWWRDPQGSEEYSTIKRVWVYITGVTDHHQNSQPQSMQRIAGTDVWQWTTQLNANWRGSYCFIPTERDDIFSAPSPDRLELREGWRKLLPQAIADPLNPQSWKGGLGHAVSALEMPQAPLQPGWDCPQAPEIPAKEIIWKSERLKNSRRVWIFTTGDVTAEERPLAVLLDGEFWAQSMPVWPVLTSLTHRQQLPPAVYVLIDAIDTTHRAHELPCNADFWLAVQQELLPLVKVIAPFSDRADRTVVAGQSFGGLSALYAGLHWPERFGCVLSQSGSYWWPHRGGQQEGVLLEKLKAGEVSAEGLRIVLEAGIREPMIMRANQALYAQLHPIKESIFWRQVDGGHDALCWRGGLMQGLIDLWQPLFHDRS | soluble
MGSDKIHHHHHHMQKPCIATPFSSYQETVPSLLQAVGAPGLLSRQSCILIKPNLVNASPPPVTLPVAACEALVAACRRWSKARIVIAEGSGDRDLSTGEIFQRLGYERLARRYDVDLVDLNNAELVELQNPLCEVFPTFMMPRMVMDSFVISAAVLKAHSLAEVTLSMKNMIGVAPPAYYQQGGHWKKSAFHAQMHRSIFELNRYRKPDLAFIDASVGLAEYHLGGPTCEPPVDKLLAGFDPVAVDAAGSELLGIPWQQVEHIRLADGLLGRAGK | not soluble
HRIDTKTAQKDKFGAGKNGFTRGNPQTGTPATDLDDDYFDMLQEELCSVVEASGASLEKGRHDQLLTALRALLLSRKNPFGDIKSDGTVQTALENLGLGEGAKLNAATATLGRTGFIAIPVMIGGIEQSVIIQWGWNAAKASASGGDGNTVVFPVAFNNACVAVVANYDNVSAPINAVATGGYTTTSFLLRCAAQTGSYYYNWIAIGY | not soluble
